Assay results: patent publication US20190170753A1

Key:
[1] = biological target: 92-133 biotin labeled HCV core peptide (hepatitis C virus) (UniProt Q9WMX2); test: capture EIA; Ab 15.625 ng/mL; bt-peptide 500 ng/mL
[2] = biological target: Mut6T110S biotin labeled HCV core peptide (hepatitis C virus); test: capture EIA; Ab 15.625 ng/mL; bt-peptide 500 ng/mL
[3] = biological target: Mut1T110N biotin labeled HCV core peptide (hepatitis C virus); test: capture EIA; Ab 15.625 ng/mL; bt-peptide 500 ng/mL
[4] = biological target: C113T109N biotin labeled HCV core peptide (hepatitis C virus); test: capture EIA; Ab 15.625 ng/mL; bt-peptide 500 ng/mL
[5] = biological target: 92-133 biotin labeled HCV core peptide (hepatitis C virus) (UniProt Q9WMX2); test: capture EIA; Ab 1000 ng/mL; bt-peptide 500 ng/mL
[6] = biological target: Mut6T110S biotin labeled HCV core peptide (hepatitis C virus); test: capture EIA; Ab 1000 ng/mL; bt-peptide 500 ng/mL
[7] = biological target: Mut1T110N biotin labeled HCV core peptide (hepatitis C virus); test: capture EIA; Ab 1000 ng/mL; bt-peptide 500 ng/mL
[8] = biological target: C113T109N biotin labeled HCV core peptide (hepatitis C virus); test: capture EIA; Ab 1000 ng/mL; bt-peptide 500 ng/mL
[9] = biological target: 92-133 biotin labeled HCV core peptide (hepatitis C virus) (UniProt Q9WMX2); test: capture EIA; Ab 0.977 ng/mL; bt-peptide 500 ng/mL
[10] = biological target: Mut6T110S biotin labeled HCV core peptide (hepatitis C virus); test: capture EIA; Ab 0.977 ng/mL; bt-peptide 500 ng/mL
[11] = biological target: Mut1T110N biotin labeled HCV core peptide (hepatitis C virus); test: capture EIA; Ab 0.977 ng/mL; bt-peptide 500 ng/mL
[12] = biological target: C113T109N biotin labeled HCV core peptide (hepatitis C virus); test: capture EIA; Ab 0.977 ng/mL; bt-peptide 500 ng/mL
[13] = biological target: 92-133 biotin labeled HCV core peptide (hepatitis C virus) (UniProt Q9WMX2); test: capture EIA; Ab 125 ng/mL; bt-peptide 500 ng/mL
[14] = biological target: Mut6T110S biotin labeled HCV core peptide (hepatitis C virus); test: capture EIA; Ab 125 ng/mL; bt-peptide 500 ng/mL
[15] = biological target: Mut1T110N biotin labeled HCV core peptide (hepatitis C virus); test: capture EIA; Ab 125 ng/mL; bt-peptide 500 ng/mL
[16] = biological target: C113T109N biotin labeled HCV core peptide (hepatitis C virus); test: capture EIA; Ab 125 ng/mL; bt-peptide 500 ng/mL
[17] = biological target: 92-133 biotin labeled HCV core peptide (hepatitis C virus) (UniProt Q9WMX2); test: capture EIA; Ab 31.25 ng/mL; bt-peptide 500 ng/mL
[18] = biological target: Mut6T110S biotin labeled HCV core peptide (hepatitis C virus); test: capture EIA; Ab 31.25 ng/mL; bt-peptide 500 ng/mL
[19] = biological target: Mut1T110N biotin labeled HCV core peptide (hepatitis C virus); test: capture EIA; Ab 31.25 ng/mL; bt-peptide 500 ng/mL
[20] = biological target: C113T109N biotin labeled HCV core peptide (hepatitis C virus); test: capture EIA; Ab 31.25 ng/mL; bt-peptide 500 ng/mL
[21] = biological target: 92-133 biotin labeled HCV core peptide (hepatitis C virus) (UniProt Q9WMX2); test: capture EIA; Ab 62.5 ng/mL; bt-peptide 500 ng/mL
[22] = biological target: Mut6T110S biotin labeled HCV core peptide (hepatitis C virus); test: capture EIA; Ab 62.5 ng/mL; bt-peptide 500 ng/mL
[23] = biological target: Mut1T110N biotin labeled HCV core peptide (hepatitis C virus); test: capture EIA; Ab 62.5 ng/mL; bt-peptide 500 ng/mL
[24] = biological target: C113T109N biotin labeled HCV core peptide (hepatitis C virus); test: capture EIA; Ab 62.5 ng/mL; bt-peptide 500 ng/mL
[25] = biological target: 92-133 biotin labeled HCV core peptide (hepatitis C virus) (UniProt Q9WMX2); test: capture EIA; Ab 7.813 ng/mL; bt-peptide 500 ng/mL
[26] = biological target: Mut6T110S biotin labeled HCV core peptide (hepatitis C virus); test: capture EIA; Ab 7.813 ng/mL; bt-peptide 500 ng/mL
[27] = biological target: Mut1T110N biotin labeled HCV core peptide (hepatitis C virus); test: capture EIA; Ab 7.813 ng/mL; bt-peptide 500 ng/mL
[28] = biological target: C113T109N biotin labeled HCV core peptide (hepatitis C virus); test: capture EIA; Ab 7.813 ng/mL; bt-peptide 500 ng/mL
[29] = biological target: 92-133 biotin labeled HCV core peptide (hepatitis C virus) (UniProt Q9WMX2); test: capture EIA; Ab 1.953 ng/mL; bt-peptide 500 ng/mL
[30] = biological target: Mut6T110S biotin labeled HCV core peptide (hepatitis C virus); test: capture EIA; Ab 1.953 ng/mL; bt-peptide 500 ng/mL
[31] = biological target: Mut1T110N biotin labeled HCV core peptide (hepatitis C virus); test: capture EIA; Ab 1.953 ng/mL; bt-peptide 500 ng/mL
[32] = biological target: C113T109N biotin labeled HCV core peptide (hepatitis C virus); test: capture EIA; Ab 1.953 ng/mL; bt-peptide 500 ng/mL
[33] = biological target: 92-133 biotin labeled HCV core peptide (hepatitis C virus) (UniProt Q9WMX2); test: capture EIA; Ab 500 ng/mL; bt-peptide 500 ng/mL
[34] = biological target: Mut6T110S biotin labeled HCV core peptide (hepatitis C virus); test: capture EIA; Ab 500 ng/mL; bt-peptide 500 ng/mL
[35] = biological target: Mut1T110N biotin labeled HCV core peptide (hepatitis C virus); test: capture EIA; Ab 500 ng/mL; bt-peptide 500 ng/mL
[36] = biological target: C113T109N biotin labeled HCV core peptide (hepatitis C virus); test: capture EIA; Ab 500 ng/mL; bt-peptide 500 ng/mL
[37] = biological target: 92-133 biotin labeled HCV core peptide (hepatitis C virus) (UniProt Q9WMX2); test: capture EIA; Ab 250 ng/mL; bt-peptide 500 ng/mL
[38] = biological target: Mut6T110S biotin labeled HCV core peptide (hepatitis C virus); test: capture EIA; Ab 250 ng/mL; bt-peptide 500 ng/mL
[39] = biological target: Mut1T110N biotin labeled HCV core peptide (hepatitis C virus); test: capture EIA; Ab 250 ng/mL; bt-peptide 500 ng/mL
[40] = biological target: C113T109N biotin labeled HCV core peptide (hepatitis C virus); test: capture EIA; Ab 250 ng/mL; bt-peptide 500 ng/mL
[41] = biological target: 92-133 biotin labeled HCV core peptide (hepatitis C virus) (UniProt Q9WMX2); test: capture EIA; Ab 15.6 ng/mL; bt-peptide 500 ng/mL (summary of Table 7)
[42] = biological target: Mut6T110S biotin labeled HCV core peptide (hepatitis C virus); test: as above
[43] = biological target: Mut1T110N biotin labeled HCV core peptide (hepatitis C virus); test: as above
[44] = biological target: C113T109N biotin labeled HCV core peptide (hepatitis C virus); test: as above
[45] = biological target: 92-133 biotin labeled HCV core peptide (hepatitis C virus) (UniProt Q9WMX2); test: capture EIA; Ab 2000 ng/mL; bt-peptide 500 ng/mL
[46] = biological target: Mut6T110S biotin labeled HCV core peptide (hepatitis C virus); test: capture EIA; Ab 2000 ng/mL; bt-peptide 500 ng/mL
[47] = biological target: Mut1T110N biotin labeled HCV core peptide (hepatitis C virus); test: capture EIA; Ab 2000 ng/mL; bt-peptide 500 ng/mL
[48] = biological target: C113T109N biotin labeled HCV core peptide (hepatitis C virus); test: capture EIA; Ab 2000 ng/mL; bt-peptide 500 ng/mL
[49] = biological target: 92-133 biotin labeled HCV core peptide (hepatitis C virus) (UniProt Q9WMX2); test: capture EIA; Ab 3.906 ng/mL; bt-peptide 500 ng/mL
[50] = biological target: Mut6T110S biotin labeled HCV core peptide (hepatitis C virus); test: capture EIA; Ab 3.906 ng/mL; bt-peptide 500 ng/mL
[51] = biological target: Mut1T110N biotin labeled HCV core peptide (hepatitis C virus); test: capture EIA; Ab 3.906 ng/mL; bt-peptide 500 ng/mL
[52] = biological target: C113T109N biotin labeled HCV core peptide (hepatitis C virus); test: capture EIA; Ab 3.906 ng/mL; bt-peptide 500 ng/mL

C11-3 (ABT-4) monoclonal antibody
signal at 492 nm [1]: 1.01 A492 | signal at 492 nm [2]: 0.807 A492 | signal at 492 nm [3]: 0.11 A492 | signal at 492 nm [4]: 0.116 A492 | signal at 492 nm [5]: 1.87 A492 | signal at 492 nm [6]: 2.15 A492 | signal at 492 nm [7]: 0.0721 A492 | signal at 492 nm [8]: 0.0806 A492 | signal at 492 nm [9]: 0.116 A492 | signal at 492 nm [10]: 0.101 A492 | signal at 492 nm [11]: 0.0755 A492 | signal at 492 nm [12]: 0.104 A492 | signal at 492 nm [13]: 1.83 A492 | signal at 492 nm [14]: 2.02 A492 | signal at 492 nm [15]: 0.127 A492 | signal at 492 nm [16]: 0.147 A492 | signal at 492 nm [17]: 1.55 A492 | signal at 492 nm [18]: 1.54 A492 | signal at 492 nm [19]: 0.107 A492 | signal at 492 nm [20]: 0.16 A492 | signal at 492 nm [21]: 1.92 A492 | signal at 492 nm [22]: 2.11 A492 | signal at 492 nm [23]: 0.155 A492 | signal at 492 nm [24]: 0.202 A492 | signal at 492 nm [25]: 0.562 A492 | signal at 492 nm [26]: 0.344 A492 | signal at 492 nm [27]: 0.0966 A492 | signal at 492 nm [28]: 0.119 A492 | signal at 492 nm [29]: 0.134 A492 | signal at 492 nm [30]: 0.0964 A492 | signal at 492 nm [31]: 0.0854 A492 | signal at 492 nm [32]: 0.114 A492 | signal at 492 nm [33]: 1.95 A492 | signal at 492 nm [34]: 2.24 A492 | signal at 492 nm [35]: 0.0765 A492 | signal at 492 nm [36]: 0.0882 A492 | signal at 492 nm [37]: 1.68 A492 | signal at 492 nm [38]: 1.83 A492 | signal at 492 nm [39]: 0.0857 A492 | signal at 492 nm [40]: 0.0963 A492 | signal at 492 nm [41]: 1.01 A492 | signal at 492 nm [42]: 0.807 A492 | signal at 492 nm [43]: 0.11 A492 | signal at 492 nm [44]: 0.116 A492 | signal at 492 nm [45]: 1.45 A492 | signal at 492 nm [46]: 1.73 A492 | signal at 492 nm [47]: 0.0915 A492 | signal at 492 nm [48]: 0.0707 A492 | signal at 492 nm [49]: 0.183 A492 | signal at 492 nm [50]: 0.227 A492 | signal at 492 nm [51]: 0.079 A492 | signal at 492 nm [52]: 0.0833 A492
